From PMC3641832

Tests used:
[1] = target: cce_0566 from Cyanothece sp. ATCC 51142 (DUF269 family protein) (Cyanothece sp. ATCC 51142); test: crystal structure
[2] = target: cce_0566 from Cyanothece sp. ATCC 51142 (DUF269 family protein) (Cyanothece sp. ATCC 51142); test: NMR 15N relaxation
[3] = target: cce_0566 from Cyanothece sp. ATCC 51142 (DUF269 family protein) (Cyanothece sp. ATCC 51142); test: SEC

stoichiometry N [1]: 2
stoichiometry N [2]: 2
stoichiometry N [3]: 2
Substance: cce_0566 from Cyanothece sp. ATCC 51142 (DUF269 family protein) (natural protein)
